For the experiment, the target named is human ubiquitin (15N-ubiquitin of the peptide titration) (human) (UniProt P0CG48). The experiment in a line: NMR titration.

Chain of short peptide from the YUH1 N-terminus (1-10) (P35127 whole entry, looked up, tested part not stated): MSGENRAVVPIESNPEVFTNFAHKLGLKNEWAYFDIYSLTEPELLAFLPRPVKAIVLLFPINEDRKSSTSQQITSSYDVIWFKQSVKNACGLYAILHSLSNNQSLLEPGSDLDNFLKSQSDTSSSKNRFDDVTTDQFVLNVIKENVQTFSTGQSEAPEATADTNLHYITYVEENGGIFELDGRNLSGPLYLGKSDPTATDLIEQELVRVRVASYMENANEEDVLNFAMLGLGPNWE

For orientation: Kd means the concentration at which binding is half-saturated. High values mean a looser complex, low ones a tighter complex. On to “short peptide from the YUH1 N-terminus (1-10) (from UniProt P35127 1-10)”, for which the Kd came out at 180 µM.

The values above are taken from article doi:10.1101/2021.04.22.440356.
